In one data set the target is T1, bovine tyroglogulin (Bos taurus, UniProt P01267).
T1 construct: purchased SIGMA
Put plainly: Elutability of lectins bound to a bovine tyroglobulin-immobilized chip (SPR). The data set is classed as binding, cattle. The conditions noted are these: 0.5 M D-mannose. An excerpt:
As in the case of chicken egg yolk antibody, a chip having immobilized thereon bovine tyroglogulin including the high-mannose-type sugar chain and the complex-type sugar chain was used to assess elutability of lectins that had bound to the chip. Note that, tyroglogulin was immobilized in a maximum amount (12,095 RU) on CM5 sensor chip, so as to make it easier to confirm specific binding and elution. Each solution of analyte (lectin) contained in HBS-EP (equilibriated) buffer (BIACORE) at a concentration of 100 μg/ml was flown at a flow rate of 5 μl/min until the amount of bonding reached equilibrium. After washing with HBS-EP buffer and the dissociation has reached equilibrium, 50 μl of 0.5 M D-mannose in the same buffer was injected. Based on the sensorgram, the amount of binding (RU) at the time when 50 μl (5 μg) of analyte (lectin) solution was injected was measured. Then, the amount of residual bonding (RU) of analyte (lectin) after buffer washing and elution with 50 μl of 0.5 M D-mannose was measured. The amount of residual bonding was given by percentage with respect to the maximum amount of bonding.
FIG. 3 represents the amount of residual bonding (%) of analyte (lectin) after the bonding, washing, and elution with 0.5 M D-mannose. FIG. 3 represents relative amounts of lectin that remain bonded to the chip after the dissociation with HBS-EP buffer, and relative amounts of lectin that remain after the elution with 0.5M D-mannose, when the amount of lectin binding to the bovine tyroglobulin immobilized chip exposed to the respective lectins is taken at 100%.

Another data set has as its target T2, asialotransferrin (Homo sapiens, UniProt P02787).
T2 construct: purchased SIGMA
The data set can be described thus: SPR kinetics analysis of affinity between lectins and immobilized asialotransferrin. In kind it is binding. Here is the method: (§1) Immobilization was performed according to manuals. Specifically, Taka-amylase A was immobilized using a surface thiol coupling method, and asialofetuin, bovine tyroglobulin, antibody, and BSA were immobilized using an amine coupling method. Each sample was immobilized in an amount within a range of 1000 RU to 1500 RU as adjusted by a manual injection method. Purity of the glycoprotein was confirmed by SDS-PAGE or MALDI-TOF-MS.
Affinity between each glycoprotein and each lectin was analyzed by SPR technique. Prior to analysis, preliminary analyses were made to assess analysis methods. […] Approximate KD values were calculated from a resulting sensorgram, and five or more steps of two-fold series dilutions of analyte (lectin) were prepared at target concentrations of 0.1 to 10 KD [M]. An analysis program was created using “Customized Application” according to the manual, and a subtraction function was used in which subtraction was made from flow cells that had glycoproteins immobilized thereon, from among four flow cells in the sensor chip. […] Under this analysis program, each analyte (lectin) solution was flown on the sensor chip at a flow rate of 30 μl/min for 3 minutes, and buffer was flown for 3 minutes to measure the amount of lectin that had bonded/dissociated. […]

Data set [1] deals with chicken egg yolk antibody (chicken IgY antibody). Put plainly: Search for lectins that bind to chicken egg yolk antibody by SPR (Biacore 2000). In kind it is binding. The conditions noted are these: chicken IgY immobilized as ligand. The text has this: Assessment was made as to affinity of the different types of lectins and chicken egg yolk antibody (chicken IgY antibody). Briefly, using Biacore 2000 (BIACORE) that employs the principle of surface plasmon resonance method (hereinafter, “SPR method”), chicken egg yolk antibodies (chicken IgY antibodies) were immobilized as ligands on a sensor chip, and measurements were made according to manuals using each type of lectin solution as an analyte. The SPR technique allows for measurement of specific interactions between biomolecules both quickly and quantitatively, without labeling the biomolecules. According to this technique, the ligands are immobilized on a surface of the sensor chip, which is then supplemented with a solution of substance (analyte) that acts on the ligand. Slight changes in mass caused by the binding and dissociation of the molecules are then detected as changes in SPR signals. The mass change is represented by resonance unit (RU). One thousand RU is equivalent to a change in reflection angle of 0.1° caused by resonance, and it means that the analyte has bound to the ligand at 1 ng/mm^2. The surface of the sensor chip is coated with dextran, and the ligands are immobilized primarily via carboxyl groups that have been introduced into the dextran.
Note that, as permitted, the lectins tested as analytes were selected to have different sugar binding specificity. The chicken egg yolk antibody (chicken IgY antibodies) tested as ligands were obtained by purification from egg yolk, using Eggcellent Chicken IgY Purification Kit (Pierce Chem. Co. USA).

Data set [2] has the same test system. The data set can be described thus: SPR kinetics analysis of affinity between lectins and immobilized chicken egg yolk antibody. The conditions noted are these: lectin as analyte; for Kd: read-out: Dissociation Constant KD. In kind it is binding. Here is the method: as §1
Affinity between each glycoprotein and each lectin was analyzed by SPR technique. Prior to analysis, preliminary analyses were made to assess analysis methods. […] Approximate KD values were calculated from a resulting sensorgram, and five or more steps of two-fold series dilutions of analyte (lectin) were prepared at target concentrations of 0.1 to 10 KD [M]. An analysis program was created using “Customized Application” according to the manual, and a subtraction function was used in which subtraction was made from flow cells that had glycoproteins immobilized thereon, from among four flow cells in the sensor chip. […] Under this analysis program, each analyte (lectin) solution was flown on the sensor chip at a flow rate of 30 μl/min for 3 minutes, and buffer was flown for 3 minutes to measure the amount of lectin that had bonded/dissociated. Note that, an increase in RU during the time period from 10 seconds before addition of the analyte and to 10 seconds before the end of addition of analyte was given as the amount of bonding. A decrease in RU in the time period from 10 seconds after the addition of buffer to 10 seconds before the end of addition of buffer was given as the amount of dissociation.
Next, the sensor chip was washed with 0.5 M D-mannose, 10 mM glycine-HCl (pH 4.0), 50 mM HCl, and 10 mM NaOH for reproduction. Concerning the resulting sensorgram, the bonding phase and dissociation phase were fitted together with the curve to determine a bonding rate constant Ka, a dissociation rate constant kd, an affinity constant KA, and a dissociation constant KD.
Table 1 represents affinity constants of chicken egg yolk antibody and the various lectins. Table 1 represents bonding rate constant Ka (M^−1s^−1), dissociation rate constant Kd (s^−1), affinity constant KA (M^−1), and dissociation constant KD (M). The greater the affinity constant, the greater the affinity (stronger binding).
On the technique in general: In SPR one partner is held on a chip, and binding of the other changes the refractive index at the surface.

In data set [3] the test system is BML-17. The data set can be described thus: Hemagglutination-inhibition test with BML-17 and trypsin-treated rabbit erythrocytes. The data set is classed as cell-based, Bryopsis maxima. Here is the method: (§2) Hemagglutinating activity was measured using a micro titer method. Twenty-five μl of serially two-fold dilutions of each purified fraction solution adjusted with saline was placed on a micro titer plate. Each diluted solution was supplemented with 25 μl of a 2% suspension of trypsin-treated rabbit erythrocytes and was gently stirred. The mixture was allowed to stand at room temperature for 1.5 hours and agglutination was observed. Agglutination was evaluated with naked eye. Agglutination of 50% or greater percentage of red blood cells was evaluated as positive. Agglutinating activity was given by agglutination titer, i.e., the protein concentration of maximum diluent showing agglutinating activity.
In this Example, trypsin-treated rabbit red blood cells (TRBC) were used as red blood cells. TRBC was prepared as follows. First, 2 ml of blood was collected from the ear of a rabbit kept in laboratory. The blood sample was washed 3 times with about 50 ml of saline, and was supplemented with 50 ml of saline to obtain a 2% rabbit blood cell suspension. The solution was supplemented with 1/10 volume of 0.5% trypsin in saline, and was allowed to stand at 37° C. for 1.5 hours. The trypsin-treated red blood cells were then washed 3 times with saline, and were supplemented with 45 ml of saline to obtain a 2% suspension of trypsin-treated rabbit erythrocytes (or blood cells) (TRBC).
Hemagglutination-inhibition test was performed according to the following procedure. First, each 25 μl of serially two-fold dilutions of sugar solution in saline was placed on a micro titer plate. The concentration of the original solutions of sugars examined was 100 mM for monosaccharides and oligosaccharides, and 2 mg/ml for glycoproteins. Each solution was mixed with 25 μl of BML-17 solution that had been adjusted to an agglutination titer of 4, and allowed to stand for 1.5 hours at room temperature after gentle stirring. Then, 25 μl of TRBC was added, and the mixture was allowed to stand for 2 hours at room temperature to observe hemagglutination inhibitory capability. The presence or absence of hemagglutination inhibitory capability was determined by naked eye. The test was positive when no hemagglutination occurred in about 100% of the red blood cells.
The hemagglutination inhibition test used D-glucose, D-galactose, D-mannose, N-acetyl-D-glucosamine, N-acetyl-D-galactosamine, D-xylose, L-fucose, fructose, lactose, and raffinose as monosaccharides and oligosaccharides. As glycoproteins, mucin (bovine submaxillary gland) and asialomucin, fetuin (type III, calf serum) and asialofetuin, transferrin (human) and asialotransferrin, α1-acid glycoprotein (human) and alialo-α1-acid glycoprotein, and yeast mannan were used.

The test system of data set [4] is BML-17. The description is as above. The data set is classed as cell-based, Bryopsis maxima. The conditions noted are these: gel filtration active fractions instead of purified BML-17.
The subject of data set [5] is trypsin-treated rabbit red blood cell (TRBC). The data set can be described thus: Temperature stability and pH stability of BML-17 by agglutinating activity. The conditions noted are these: 30-minute heat treatment. The data set is classed as physicochemical. Here is the method: as §2
In this Example, trypsin-treated rabbit red blood cells (TRBC) were used as red blood cells. TRBC was prepared as follows. First, 2 ml of blood was collected from the ear of a rabbit kept in laboratory. The blood sample was washed 3 times with about 50 ml of saline, and was supplemented with 50 ml of saline to obtain a 2% rabbit blood cell suspension. The solution was supplemented with 1/10 volume of 0.5% trypsin in saline, and was allowed to stand at 37° C. for 1.5 hours. […]
Temperature stability and pH stability of BML-17 were evaluated, using agglutinating activity for trypsin-treated rabbit red blood cell (TRBC) as a measure.

Values after ≈ are worked out from the molar mass of the structure shown.

T1 sequence (P01267 20-2769): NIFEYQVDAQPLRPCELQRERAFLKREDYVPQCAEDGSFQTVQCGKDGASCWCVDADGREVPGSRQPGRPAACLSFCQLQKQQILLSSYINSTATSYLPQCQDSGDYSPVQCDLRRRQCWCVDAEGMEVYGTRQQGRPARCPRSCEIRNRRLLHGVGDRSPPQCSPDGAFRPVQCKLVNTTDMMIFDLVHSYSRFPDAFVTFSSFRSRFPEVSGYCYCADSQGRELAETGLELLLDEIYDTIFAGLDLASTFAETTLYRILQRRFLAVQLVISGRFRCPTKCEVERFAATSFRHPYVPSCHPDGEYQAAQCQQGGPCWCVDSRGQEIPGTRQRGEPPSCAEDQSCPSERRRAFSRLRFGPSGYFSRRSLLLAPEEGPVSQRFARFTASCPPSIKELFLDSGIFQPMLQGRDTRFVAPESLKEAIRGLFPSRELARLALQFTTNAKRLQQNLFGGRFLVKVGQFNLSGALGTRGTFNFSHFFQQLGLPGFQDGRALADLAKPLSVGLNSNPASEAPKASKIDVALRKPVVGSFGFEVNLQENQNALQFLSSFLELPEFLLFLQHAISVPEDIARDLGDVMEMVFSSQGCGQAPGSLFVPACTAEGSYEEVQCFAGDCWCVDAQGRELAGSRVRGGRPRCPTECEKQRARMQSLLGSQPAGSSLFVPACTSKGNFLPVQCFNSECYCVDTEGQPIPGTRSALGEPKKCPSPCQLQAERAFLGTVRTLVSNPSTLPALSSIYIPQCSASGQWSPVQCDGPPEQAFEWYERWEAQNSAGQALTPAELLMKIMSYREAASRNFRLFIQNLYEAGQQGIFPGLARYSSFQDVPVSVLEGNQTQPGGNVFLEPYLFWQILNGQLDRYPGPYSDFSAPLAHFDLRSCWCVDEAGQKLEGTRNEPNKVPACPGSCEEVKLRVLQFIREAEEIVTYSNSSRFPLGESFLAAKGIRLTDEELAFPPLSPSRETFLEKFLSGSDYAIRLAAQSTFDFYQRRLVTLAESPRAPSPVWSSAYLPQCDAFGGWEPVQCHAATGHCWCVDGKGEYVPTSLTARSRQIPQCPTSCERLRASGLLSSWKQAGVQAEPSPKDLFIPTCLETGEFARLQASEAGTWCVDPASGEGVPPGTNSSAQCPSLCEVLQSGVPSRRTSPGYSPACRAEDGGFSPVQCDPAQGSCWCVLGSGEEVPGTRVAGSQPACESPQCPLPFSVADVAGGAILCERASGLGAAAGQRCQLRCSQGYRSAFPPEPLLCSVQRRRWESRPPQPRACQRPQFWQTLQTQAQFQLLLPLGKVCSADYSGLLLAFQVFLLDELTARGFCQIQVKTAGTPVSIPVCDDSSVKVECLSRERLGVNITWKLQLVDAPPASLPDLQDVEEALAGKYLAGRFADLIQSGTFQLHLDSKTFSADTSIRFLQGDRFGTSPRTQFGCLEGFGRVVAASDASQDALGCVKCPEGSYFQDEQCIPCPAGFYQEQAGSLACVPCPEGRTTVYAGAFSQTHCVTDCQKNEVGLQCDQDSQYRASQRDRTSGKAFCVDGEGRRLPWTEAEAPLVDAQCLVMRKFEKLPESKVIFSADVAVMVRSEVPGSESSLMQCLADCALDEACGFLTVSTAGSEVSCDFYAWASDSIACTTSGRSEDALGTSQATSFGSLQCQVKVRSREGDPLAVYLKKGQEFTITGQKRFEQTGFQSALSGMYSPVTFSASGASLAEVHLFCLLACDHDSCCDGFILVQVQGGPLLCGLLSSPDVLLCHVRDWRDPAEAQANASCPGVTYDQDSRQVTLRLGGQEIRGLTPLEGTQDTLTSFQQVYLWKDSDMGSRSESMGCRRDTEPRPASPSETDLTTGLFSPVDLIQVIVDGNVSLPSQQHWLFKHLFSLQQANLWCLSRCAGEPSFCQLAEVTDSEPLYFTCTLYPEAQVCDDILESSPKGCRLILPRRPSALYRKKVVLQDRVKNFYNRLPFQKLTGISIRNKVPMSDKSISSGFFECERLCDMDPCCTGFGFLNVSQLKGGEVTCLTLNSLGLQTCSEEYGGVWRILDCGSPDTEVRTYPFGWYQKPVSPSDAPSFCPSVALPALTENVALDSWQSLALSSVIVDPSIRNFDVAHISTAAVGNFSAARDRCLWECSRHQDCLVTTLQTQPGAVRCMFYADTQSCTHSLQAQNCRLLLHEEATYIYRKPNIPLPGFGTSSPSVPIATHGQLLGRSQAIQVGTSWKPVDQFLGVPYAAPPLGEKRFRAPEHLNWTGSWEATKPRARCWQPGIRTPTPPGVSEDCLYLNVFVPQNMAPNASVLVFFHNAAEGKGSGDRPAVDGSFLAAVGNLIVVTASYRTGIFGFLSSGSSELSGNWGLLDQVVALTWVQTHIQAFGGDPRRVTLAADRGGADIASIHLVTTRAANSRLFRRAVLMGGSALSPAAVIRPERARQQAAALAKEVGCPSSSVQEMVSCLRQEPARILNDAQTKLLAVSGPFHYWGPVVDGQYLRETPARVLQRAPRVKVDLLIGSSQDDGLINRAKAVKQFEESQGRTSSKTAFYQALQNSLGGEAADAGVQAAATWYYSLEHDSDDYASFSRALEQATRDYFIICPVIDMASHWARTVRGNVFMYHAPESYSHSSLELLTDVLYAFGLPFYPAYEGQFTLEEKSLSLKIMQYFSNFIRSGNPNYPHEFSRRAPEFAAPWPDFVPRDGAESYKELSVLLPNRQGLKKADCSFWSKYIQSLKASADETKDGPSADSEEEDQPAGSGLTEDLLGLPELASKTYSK
T2 sequence (P02787 20-698): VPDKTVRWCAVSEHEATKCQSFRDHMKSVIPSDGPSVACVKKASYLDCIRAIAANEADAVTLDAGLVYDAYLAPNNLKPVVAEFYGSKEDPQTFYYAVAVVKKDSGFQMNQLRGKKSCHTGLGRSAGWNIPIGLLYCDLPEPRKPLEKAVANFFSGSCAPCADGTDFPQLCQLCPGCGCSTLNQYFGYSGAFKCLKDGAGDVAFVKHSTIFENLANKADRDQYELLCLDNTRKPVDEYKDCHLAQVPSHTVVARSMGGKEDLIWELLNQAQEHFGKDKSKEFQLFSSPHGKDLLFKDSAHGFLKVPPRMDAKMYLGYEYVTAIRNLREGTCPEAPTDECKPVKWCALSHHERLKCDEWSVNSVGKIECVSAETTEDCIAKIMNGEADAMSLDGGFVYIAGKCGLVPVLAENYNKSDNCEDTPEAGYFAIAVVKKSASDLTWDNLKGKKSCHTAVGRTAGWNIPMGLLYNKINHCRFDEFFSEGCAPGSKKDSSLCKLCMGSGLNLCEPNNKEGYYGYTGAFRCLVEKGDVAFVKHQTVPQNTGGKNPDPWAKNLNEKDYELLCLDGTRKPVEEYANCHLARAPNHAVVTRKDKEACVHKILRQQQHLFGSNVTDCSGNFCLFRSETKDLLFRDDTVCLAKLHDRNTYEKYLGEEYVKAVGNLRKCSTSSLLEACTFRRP

With “Con A: Canavallia ensiformis-derived lectin”, the “Elution of bound lectin with D-mannose” value with bovine tyroglogulin was “partially eluted with D-mannose”. For the same molecule, the “Affinity Constant KA” value with asialotransferrin is 10^6 M^−1. Further, in data set [1], the “Binding to chicken egg yolk antibody (in words)” value (from here on “Binding … (in words)”) is listed as “binding to chicken egg yolk antibody (chicken IgY antibodies) occurs”. In data set [2], the “Affinity Constant KA” value is 1.87e+07 M⁻¹, the “Binding Rate Constant ka” value was 467 M⁻¹ s⁻¹, the “Dissociation Rate Constant kd” value is 2.49e-05 s⁻¹ and the Kd is 53.4 nM.

In the case of `O=C[C@@H](O)[C@@H](O)[C@H](O)[C@H](O)CO` [D-Mannose], the “Inhibition of agglutinating activity of BML-17 (in words)” value in the data set on BML-17 [3] (TRBC) was “inhibited”. In the data set with BML-17 [3] (monosaccharides and oligosaccharides, inhibition of BML-17 (agglutination titer 4) agglutination of TRBC), this molecule gave a Minimum inhibitory concentration of 12.5 mM (≈ 2250 µg/mL). Moreover, the “Inhibition of agglutinating activity of the active fractions obtained by gel filtration” value in the data set on BML-17 [4] is listed as “not inhibited at all”.

B1: BML-17: polypeptide (lectin) isolated from seaweed Bryopsis maxima; amino acid sequence of SEQ ID NO: 2 (protein, listed as Bryopsis maxima)
chain: VIYQDPVTSDMFAKIPMPGHRGPWYVCHSSGDWSRNEPVFGRCALDAKGMVEAYFPYGGKDIKWPSRWSAVLTTGVYWGKYNDWKQADCNGGQQVVDGGRGAVTVRMDGLSECKGWTTGKSSHNEVWFGCNGKEVGSWLSDTPASDVFPLCQEYGAAVKLVHMGRAFN
B1: the “Elution of bound lectin with D-mannose” value in the data set with bovine tyroglogulin was “specifically and quantitatively eluted with D-mannose”. Further, the “Temperature at which agglutinating activity attenuated” value in data set [5] was ≥ 60 °C. Also, the “Binding … (in words)” value in data set [1] was “binding to chicken egg yolk antibody (chicken IgY antibodies) occurs”. In data set [2], the “Affinity Constant KA” value stood at 8.36e+07 M⁻¹, the “Binding Rate Constant ka” value worked out at 490000 M⁻¹ s⁻¹, the “Dissociation Rate Constant kd” value was found to be 0.00586 s⁻¹ and the Kd came to 12 nM.

B2: ESA-2: Eucheuma serra-derived lectin (protein)
chain: GRYTVQNQWGGSSAPWNDAGLWILGSRGNQNVMAVDVNSSDGGANLNGTMTYSGEGPIGFKGARRGESNVYDVENQWGGSSAPWHAGGQFVIGSRSGQGVLAVNITSSDGGKTLTGTMTYEREGPIGFKGTQSGGDTYNVENQWGGSSAPWNKAGIWALGDRSGQAMIAMDVSSSDGGKTLEGTMQYKGEGPIGFRGKLSGANNYSVENQWGGSSAPWNAAGDWLIGDRHNQNITAVKVSSDNDGKNLDGTCTYEREGPIGFKGVATS
B2: in the data set with bovine tyroglogulin, the “Elution of bound lectin with D-mannose” value was “not eluted with D-mannose or any other eluents”. In data set [1], the “Binding … (in words)” value was “binding to chicken egg yolk antibody (chicken IgY antibodies) occurs”. For the same molecule, in data set [2], the “Affinity Constant KA” value was 7.73e+07 M⁻¹, the “Binding Rate Constant ka” value turned out to be 352000 M⁻¹ s⁻¹ and the “Dissociation Rate Constant kd” value came out at 0.00455 s⁻¹.

B3: UEA-I: Ulex europaeus-derived lectin (protein)
chain: SDDLSFKFKNFSQNGKDLSFQGDASVIETGVLQLNKVGNNLPDETGGIARYIAPIHIWNCNTGEVASFITSFSFFMETSANPKAATDGLTFFLAPPDSPLRRAGGYFGLFEDTKDNDSSYQTVAVEFDTIGSPVNFDDPGFPHIGIDVNRVKSINAERWNKRYGLNNVANVEIIYEASSKTLTASLTYPSDQTSISVTSIVDLKEILPEWVSVGFSGGTYIGRQATHEVLNWYFTSNLINTNS
As to B3, in data set [1], the “Binding … (in words)” value is “binding to chicken egg yolk antibody (chicken IgY antibodies) occurs”.

The Kd is the concentration at which binding is half-saturated.
